According to paper PMC10031210 (Protein Science : A Publication of the Protein Society, 2023):

B1: FkpA (full-length, dimeric form) (natural protein, E. coli, UniProt P45523 26-270, looked up)
chain: AEAAKPATAADSKAAFKNDDQKSAYALGASLGRYMENSLKEQEKLGIKLDKDQLIAGVQDAFADKSKLSDQEIEQTLQAFEARVKSSAQAKMEKDAADNEAKGKEYREKFAKEKGVKTSSTGLVYQVVEAGKGEAPKDSDTVVVNYKGTLIDGKEFDNSYTRGEPLSFRLDGVIPGWTEGLKNIKKGGKIKLVIPPELAYGKAGVPGIPPNSTLVFDVELLDVKPAPKADAKPEADAKAADSAKK
B2: unfolded outer membrane protein X (uOmpX) (natural protein, E. coli, UniProt P0A917 24-171, looked up)
chain: ATSTVTGGYAQSDAQGQMNKMGGFNLKYRYEEDNSPLGVIGSFTYTEKSRTASSGDYNKNQYYGITAGPAYRINDWASIYGVVGVGYGKFQTTEYPTYKHDTSDYGFSYGAGLQFNPMENVALDFSYEQSRIRSVDVGTWIAGVGYRF

Key:
[1] = target: B2; test: cell-based or functional assay
[2] = target: unfolded β-barrel assembly machine A (uBamA) (UniProt P0A940 21-810); test: AUC
[3] = target: B1; test: AUC

Binder	decrease of the OmpX folding rate into diC11PC LUVs with FkpA [1] [fold]	binding result [2]	binding result [3]
B1	3	binds	–
B2	–	–	binds
